Measured values taken from patent publication US20110266675A1.

Biological target: microtubules assembled from fluorescein-modified bovine brain tubulin (α/β-tubulin) (bovine)
Test: cell-based or functional assay

- average length of MTs after 5 min of polymerization, on γ-tubulin-functionalized gold pads against solution without functionalized microchips: 1.68 micron
- average length of MTs after 10 min of polymerization, on γ-tubulin-functionalized gold pads against solution without functionalized microchips: 3.47 micron
Substance: Glutathione S-Transferase (GST)-tagged γ-Tubulin fusion protein (from UniProt P23258 1-451)
